Data published in PMC10510324, “A Biomimetic C-Terminal Extension Strategy for Photocaging Amidated Neuropeptides” (Journal of the American Chemical Society, 2023).

Target: T1, NK1R (Mus musculus, UniProt P30548)
T1 construct: from tissue; host or cells: acute mouse brain slices, cholinergic interneurons of dorsal striatum (ChatCre; Ai14 mice)
Experiment: Whole-cell recording of membrane currents, striatal cholinergic interneurons, acute brain slices
Assay type: cell-based
Description: Photoactivatable neuropeptides are powerful tools that can drive studies into the mechanisms of endogenous receptor signaling in acute brain slices.[3],[8],[40] To determine if NPP-caged peptides are compatible with such experiments, we established electrophysiological assays for measuring the activation of GRPR, OTR, NK1R, and CCK2R in acute brain slices taken from transgenic mice. These assays involved whole cell recordings of membrane currents from genetically defined neurons located in different brain regions where endogenous receptor activation produces inward, excitatory currents that facilitate action potential firing. Neuropeptide receptor-expressing cells were identified for fluorescence-guided, targeted electrophysiological recordings using transgenic mice that contain transgenes encoding Cre-recombinase under a promotor that is specific to the cell of interest, as well as a Cre-dependent tdTomato fluorescent protein via the Ai14 (Rosa26-lsl-tdTomato) reporter strain.
Our experimental framework for evaluating NPP-caged peptides in brain slices is as follows. To assess residual activity, we compared the membrane currents evoked by bath application of the parent peptide and NPP-caged peptide. To evaluate photoactivation, we compared the peak current evoked by a single, high-intensity (20–200 ms, 50–80 mW) light flash from either a 355 nm laser or 365 nm LED, to the current evoked by bath application of the parent peptide, the NPP-caged peptide without light, and NPP-peptide photoactivation in the presence of a receptor antagonist.
(A) Average inward currents over time after bath application of GRP(14-27)-NPP (3 μM, n = 5 cells from 4 mice) or GRP(14-27) (300 nM, n = 5 from 4 mice), recorded from fluorescently labeled VIP interneurons in layer 1 of the motor cortex. Data are expressed as the mean ± SEM. (B) Average inward currents evoked by photoactivation of GRP(14-27)-NPP (3 μM) with an […] light flash in the absence (green, n = 10 cells from 4 mice) and presence of the GRPR antagonist BW1023U90 (1 μM) (black, n = 6 cells from 2 mice). […] Data are expressed as the mean ± SEM. […] Data are expressed as the mean ± SEM. […] Data are expressed as the mean ± SEM. […] Data are expressed as the mean ± SEM.
Brain slice preparation. All procedures were performed in accordance with protocols approved by the University of California San Diego Institutional Animal Care and Use Committee (IACUC) following guidelines described in the US National Institutes of Health Guide for Care and Use of Laboratory Animals (UCSD IACUC protocol S16171). Experiments were conducted using mice of both sexes and the data were combined. From Vip Cre; Rosa26-lsl-tdTomato (Ai14), mouse age ranged from P15-30. From Pvalb Cre; Rosa26-lsl-tdTomato (Ai14), mouse age ranged from P20-35. From Chat Cre; Rosa26-lsl-tdTomato (Ai14), mouse age ranged from P40-100. Mice were anesthetized with isoﬂurane and decapitated, and the brain was removed, blocked, and mounted in a VT1000S vibratome (Leica Instruments). For recordings from cortex and striatum, coronal slices (300 μm) were prepared, and for hippocampus, horizontal slices

T1 sequence (P30548 whole entry): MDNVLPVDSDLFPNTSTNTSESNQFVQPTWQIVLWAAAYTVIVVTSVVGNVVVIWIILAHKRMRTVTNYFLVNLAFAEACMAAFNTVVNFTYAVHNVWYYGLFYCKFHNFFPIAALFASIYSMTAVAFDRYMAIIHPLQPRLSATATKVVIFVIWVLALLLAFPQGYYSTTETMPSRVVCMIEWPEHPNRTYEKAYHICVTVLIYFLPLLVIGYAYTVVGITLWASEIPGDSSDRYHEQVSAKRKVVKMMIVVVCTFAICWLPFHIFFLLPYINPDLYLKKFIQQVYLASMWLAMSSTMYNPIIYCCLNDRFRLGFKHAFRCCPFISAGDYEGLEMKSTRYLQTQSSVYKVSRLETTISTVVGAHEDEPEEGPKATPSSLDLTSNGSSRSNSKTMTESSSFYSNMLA

Row | Compound | block of light-evoked SP-NPP current (antagonist 10 μM) | peak current amplitude, bath application without light (1 μM, 1:1 mixture of diastereomers, n = 6 cells from 5 mice, mean ± SEM) | peak current amplitude, photoactivation (+ UV) (1 μM, 1 × 20 ms, 84 mW, 365 nm LED, n = 5 cells from 5 mice, mean ± SEM) | activity on bath application without light (3 μM as printed in the text, 1:1 mixture of diastereomers) | τon of light-evoked current (1 × 20 ms, 84 mW, 365 nm LED) [s] | τoff slow of light-evoked current (1 × 20 ms, 84 mW, 365 nm LED, biphasic decay) [s]
1 | COc1ccccc1CC(=N)N1C[C@@H]2C(=O)CCC(c3ccccc3)(c3ccccc3)[C@@H]2C1 [RP67580, (3aR,7aR)-Octahydro-2-[1-imino-2-(2-methoxyphenyl)ethyl]-7,7-diphenyl-4H-isoindol] | largely blocked | – | – | – | – | –
2 | SP-NPP: NPP-caged substance P | – | −5.2 ± 13.6 | −265.5 ± 19.7 | inactive | 1.1 | 19.5
